Measured values as given in patent US20210009693A1 (MABSPACE BIOSCIENCES SUZHOU, published 2021).
Changes are numbered by the printed parent chain. Like-named read-outs stand apart in the source and are kept apart here.

T1: hPD-L2-Fc (human, UniProt Q9BQ51 20-219)
T1 construct: Acrobiosystems PD2-H5251; also called human PD-L2 protein; not shown: Fc tag
T1 sequence (looked up): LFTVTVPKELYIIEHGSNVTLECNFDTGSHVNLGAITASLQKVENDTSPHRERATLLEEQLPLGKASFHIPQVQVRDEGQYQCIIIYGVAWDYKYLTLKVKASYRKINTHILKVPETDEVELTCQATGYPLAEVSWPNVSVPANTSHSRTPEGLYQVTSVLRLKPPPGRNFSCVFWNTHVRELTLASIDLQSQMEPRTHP

B1: 18G4 (antibody, V domains shown)
VH: QVQLQQPGTALVKPGASVKLSCKASGYTFSSYYIHWVKQRPGQGLEWIGNINPFNGGSIYNEKFKNKASLTVDTSSNTAYMQLSSLTSEDSAVYYCARWHFDYWGQGTSLTVSS
VL: DIVMTQSPSSLAVTAGEKVTLKCKSSQSLLWSGNQNNYLSWYQQKQGQPPKLLIYGASIRESWVPDRFTGSGSGTDFTLTIGNVSAEDLAVYYCQHNHGSFLPYTFGGGTRLEIK
notes: Mouse monoclonal from hybridoma; also called mouse monoclonal antibody 18G4
B2: 18G4-chimeric (antibody, V domains shown)
VH: B1 VH
VL: B1 VL
notes: Mouse variable regions fused to a human IgG1 constant region
B3: 4B6-H4L3 (antibody, V domains shown)
VH: QVQLVQSGAEVKKPGASVKVSCKASGYVFTDYYMNWVRQAPGQGLEWIGDINPNNGGTSYNQKFQGRVTVTVDTSIRTAYMELSRLRSDDTAVYYCVKWGDGPFAYWGQGTLVTVSS
VL: DIQMTQSQSSLSASVGDRVTITCQASQNVGAAVAWYQQKPGKAPKLLIYSASNRYTGVPSRFSGSGSGTDFTLTISSMQPEDIATYFCQQYSNYPTFGSGTKLGIK
notes: Humanized; also called humanized 4B6 H4L3
B4: 4B6-H4L4 (antibody, V domains shown)
VH: B3 VH
VL: B3 VL with Q8P, R54L, M78L
notes: produced in 293 cells; light chain constant region not described; also called humanized 4B6 H4L4
B5: 23F11-H4L6 (antibody, V domains shown)
VH: QVQLVQSGAEVKKPGASVKLSCKASGYIFTTYWMHWVKQRPGQGLEWIGMIQPNSGGTKYNEKFKKKATLTVDKSISTAYMELSRLTSDDTAVYYCARGAGTVDYFDYWGQGSTLTVSS
VL: DIVLTQSPASLAVSVGQRATITCRASESVDIYGNSFMHWYQQKPGQPPKLLIYRASNLESGIPARFSGSGSRTDFTLTINPVEANDTATYYCHQSTEDPYTFGGGTKLEIK
notes: produced in 293 cells; light chain constant region not described; also called humanized 23F11 H4L6
B6: 23A11-H3L3 (antibody, V domains shown)
VH: B5 VH with Q1L, M34I, E62D, K63Q, K66N, K67R, S113T, T116S, V117I
VL: B5 VL with P47S, T96N, E97D, I110T
notes: Humanized; also called humanized 23A11 H3L3
B7: 23A11 (antibody, V domains shown)
VH: LVQLQQPGAELVKPGASVKLSCKASGYIFTTYWIHWVKQRPGQGLEWIGMIQPNSGGTKYNDQFKNRATLTVDKSSTTASMQLSGLTSEDSAVYYCARGAGTVDYFDYWGQGTTLSISS
VL: B5 VL with A12T, V15L, T22S, P47S, N85D, T87V, T96N, E97D, I110T
notes: also called mouse monoclonal antibody 23A11; clone 23A11
B8: 23F11-H6L4 (antibody, V domains shown)
VH: B5 VH with L20V, K38R, R40A, K74T, T87R
VL: B5 VL with H93Q
notes: Humanized; also called humanized 23F11 H6L4
B9: 23A11-H5L3 (antibody, V domains shown)
VH: LVQLVQSGAEVKKPGASVKVSCKASGYIFTTYWIHWVRQAPGQGLEWIGMIQPNSGGTKYNDQFKNRVTLTVDTSISTAYMELSRLRSDDTAVYYCARGAGTVDYFDYWGQGTTLSISS
VL: B5 VL with P47S, T96N, E97D, I110T
notes: produced in 293 cells; also called humanized 23A11 H5L3
B10: 23A11-H5L5 (antibody, V domains shown)
VH: B9 VH
VL: B5 VL with P47A, H93Q, T96N, E97D, I110T
notes: produced in 293 cells; also called humanized 23A11 H5L5
B11: 23F11-H6L6 (antibody, V domains shown)
VH: B5 VH with L20V, K38R, R40A, K74T, T87R
VL: B5 VL
notes: produced in 293 cells; light chain constant region not described; also called humanized 23F11 H6L6

Assays:
[1] = molecular target: T2, Recombinant Mouse PD-L1/CD274 Protein (mPD-L1-his) (mouse, UniProt Q9EP73 19-238); experiment: ELISA, 20 ug/ml antibody on coated mouse PD-L1 (his-tagged per text, mPD-L1-Fc per sheet title)
T2 construct: range 19-238; ACRO Biosystem PD1-M5220; also called mouse PD-L1-his
T2 sequence (Q9EP73 other isoform, or with tags, fused parts or gaps limits assumed): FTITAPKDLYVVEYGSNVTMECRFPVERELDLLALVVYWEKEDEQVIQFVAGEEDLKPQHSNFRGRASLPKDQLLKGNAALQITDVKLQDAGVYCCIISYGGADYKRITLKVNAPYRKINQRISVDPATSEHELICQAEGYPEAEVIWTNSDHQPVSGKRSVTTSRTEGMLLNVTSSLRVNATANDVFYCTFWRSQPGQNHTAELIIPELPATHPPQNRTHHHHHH
Description: High-binding clear polystyrene 96 well plates (Nunc) were coated with 100 μl/well of 1 μg/ml mouse PD-L1-his in high pH coating buffer and incubated overnight at 4° C. Then plates were washed once on an automatic plate washer using washing buffer (PBS+0.1% Tween 20 (Sigma)). 200 μl of blocking buffer (PBS+1% BSA+1% normal goat serum+0.05% Tween-20) was added to each well and incubated for 2 hours at room temp. Then add 20 μg/ml purified hybridoma mouse antibodies in dilution buffer (PBS+1% BSA+1% normal goat serum+0.01% Tween-20) and incubate for 1 hour at RT. The plates were then washed 3 times with 250 μl/well washing buffer. 100 μl/well of a solution of HRP conjugated goat anti-mouse Fc antibody (Abcam) in dilution buffer was then added to each well of the plate. After that the ELISA plates were allowed to incubate for 60 min at RT then plates were washed 3 times with 250 μl/well washing buffer. Finally, 100 μl/well of TMB was added to each well and the reaction was terminated using 0.64M H₂SO₄. The plates were read on a Thermo Multiscan FC at 450 nM (see FIG. 6F).

[2] = molecular target: T3, wild type human PD-L1-Fc protein (SEQ ID NO: 107) (human); experiment: ELISA on captured PD-L1-Fc, as in Example 18A
T3 construct: Extracellular human PD-L1 (amino acid 19-238) with Fc fragment of human IgG1, expressed in 293T cells and used as culture supernatant; also called WT PD-L1; wild-type PD-L1
T3 sequence (chain, as listed by the source limits assumed): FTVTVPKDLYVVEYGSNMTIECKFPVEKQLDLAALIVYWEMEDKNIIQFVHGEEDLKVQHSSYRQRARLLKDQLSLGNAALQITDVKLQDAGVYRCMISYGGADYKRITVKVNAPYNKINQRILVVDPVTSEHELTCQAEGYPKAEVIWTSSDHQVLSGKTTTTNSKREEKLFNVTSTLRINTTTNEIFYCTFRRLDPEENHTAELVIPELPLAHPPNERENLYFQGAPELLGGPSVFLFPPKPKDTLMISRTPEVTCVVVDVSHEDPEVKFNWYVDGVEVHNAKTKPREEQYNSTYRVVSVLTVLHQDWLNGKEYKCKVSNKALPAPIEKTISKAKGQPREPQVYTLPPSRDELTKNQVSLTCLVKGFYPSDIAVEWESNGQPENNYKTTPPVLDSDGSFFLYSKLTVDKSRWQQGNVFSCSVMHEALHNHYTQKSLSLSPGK

[3] = molecular target: T4, human PD-L1-Fc mutant E58A (human); experiment: ELISA on captured PD-L1-Fc, as in Example 18A
T4 construct: Position 58 counts on native human PD-L1 (NP_054862.1); also called E58A mutant
T4 sequence (chain, as listed by the source E58A E58A limits assumed): as the sequence (chain, as listed by the source limits assumed) above, with E40A counted along it

[4] = molecular target: hPD-L1 (antigen of the Biacore assay) (human, UniProt Q9NZQ7 19-238, limits assumed); experiment: SPR (Biacore), antibody captured on anti-human Fc, antigen in flow
hPD-L1 (antigen of the Biacore assay), sequence (Q9NZQ7 19-238 limits assumed): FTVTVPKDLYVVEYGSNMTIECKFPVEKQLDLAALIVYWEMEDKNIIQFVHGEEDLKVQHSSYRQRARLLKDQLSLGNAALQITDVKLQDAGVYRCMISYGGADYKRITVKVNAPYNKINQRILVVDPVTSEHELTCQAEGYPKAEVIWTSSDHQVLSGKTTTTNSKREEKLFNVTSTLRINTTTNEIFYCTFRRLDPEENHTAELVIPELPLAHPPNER
Description: A CM5 sensor chip was activated in each flow cell by 7-min injection (10 μl/min) of freshly prepared 1:1 50 mM N-hydroxysuccinimide (NHS): 200 mM 1-ethyl-3-(3-dimethylaminopropyl)-carbodiimide (EDC). Then anti-human Fc antibody (GE Healthcare) in a concentration of 10 μg/ml in 10 mM sodium acetate buffer PH 5.0 was injected onto the activated chip at 10 μl/min (HBS-EP running buffer: 10 mM HEPES, 150 mM NaCl, 3.4 mM EDTA, 0.005% surfactant P20, pH 7.4). The remaining active coupling sites were blocked by 7 min injection of 1M ethanolamine at 10 μl/min. The immobilization level of each flow cell is ˜9000RU. Antibodies were captured in FC2 by anti-human Fe IgG (GE Healthcare) to 200˜300RU. FC1 was used as the reference cell. Antigen was injected at varying concentrations after capture of antibody. The association time for antibody binding antigen is 180s. Surface Regeneration condition is 120s at 10 μl/min in Gly pH1.5. The signals with captured antibody subtracted from those without captured antibody were calculated with Biacore X100 evaluation software ver. 2.0 (Biacore).

[5] = molecular target: T5, Human PD-L1/CD274 with C-Fc Tag (hPD-L1-Fc) (human, UniProt Q9NZQ7 19-238); experiment: blocking ELISA on coated hPD-L1-Fc; blocked ligand: biotinylated hPD-1-N297A
T5 construct: range 19-238; ACRO Biosystem PD1-H5258, made in HEK293; also called human PD-L1-Fc; not shown: Fc fragment of human IgG1 at C-terminus
T5 sequence (Q9NZQ7 19-238 limits assumed): as above
Description: High-binding clear polystyrene 96 well plates (Nunc) were coated with 100 μl/well of coating solution consisting of 1 μg/ml hPD-L1-Fc overnight at 4° C. Then the plates were washed once on an automatic plate washer using washing buffer (PBS+0.1% Tween 20 (Sigma)). 200 μl of blocking buffer (PBS+1% BSA+1% normal goat serum+0.05% Tween-20) was added to each well and incubated 2 hours at room temp. […] The plates were then washed 3 times using the method described above. […] After the plates were washed 3 times, 100 μl/well of a solution of 1:5000 diluted HRP conjugated Neutravidin antibody (Pierce) in dilution buffer was then added to each well of the plate. After that the ELISA plates were allowed to incubate for 60 min at RT, then the plates were washed 3 times with 250 μl/well washing buffer. Finally, 100 μl/well of TMB was added to each well and the reaction was terminated using 0.64M H₂SO₄. The plates were read on a Thermo Multiscan FC at 450 nM (see FIG. 18A to 18D).

[6] = molecular target: T6, Recombinant Human PD-L1/CD274 Protein (hPD-L1-his) (human, UniProt Q9NZQ7 19-238); experiment: ELISA on coated hPD-L1-his
T6 construct: range 19-238; ACRO Biosystem PD1-H5229, made in HEK293; also called human PD-L1-his; hPD-L-his
T6 sequence (Q9NZQ7 other isoform, or with tags, fused parts or gaps limits assumed): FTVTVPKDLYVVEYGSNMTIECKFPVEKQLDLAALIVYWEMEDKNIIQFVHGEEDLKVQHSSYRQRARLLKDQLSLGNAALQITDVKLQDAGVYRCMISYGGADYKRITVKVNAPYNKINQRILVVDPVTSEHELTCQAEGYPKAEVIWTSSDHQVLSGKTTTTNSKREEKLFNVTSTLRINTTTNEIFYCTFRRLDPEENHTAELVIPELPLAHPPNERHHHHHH

[7] = molecular target: T6, Recombinant Human PD-L1/CD274 Protein …; experiment: ELISA on coated hPD-L1-his; remark: listed apart in the source
hPD-L2-Fc = molecular target: T1, hPD-L2-Fc; experiment: ELISA, plate coated with hPD-L2-Fc
Description: Briefly, high-binding clear polystyrene 96 well plates (Nunc) were coated with 100 μl/well of a 0.5 μg/ml human PD-L1-Fc (Acrobiosystems, Cat #PD1-H5258) or 100 μl/well of a 1 μg/ml hPD-L2-Fc (Acrobiosystems, Cat #PD2-H5251), respectively, in high pH coating buffer (0.16% Na2CO3+0.3% NaHCO₃, pH 9.8) and incubated overnight at 4° C. Then the plates were washed once on an automatic plate washer using washing buffer (PBS+0.1% Tween 20 (Amresco)). 200 μl of blocking buffer (PBS+1% BSA+1% normal goat serum+0.05% Tween-20) was added to each well and incubated for 2 hours at room temp. Then add 100 μl 2 μg/ml purified PD-L1 antibodies with dilution buffer (PBS+1% BSA+1% normal goat serum+0.01% Tween-20) and incubate for 1 hour at RT. The plates were then washed 3 times with washing buffer. 100 μl/well of a solution of HRP conjugated goat anti-mouse IgG antibody (1:20000, Abcam) in dilution buffer was then added to each well of the plate. After that the ELISA plates were allowed to incubate for 60 min at RT then the plates were washed 3 times with 250 μl/well washing buffer. Finally, 100 μl/well of TMB was added to each well for 15 min and the reaction was terminated using 50 ul/well of 0.16 M/L sulfuric acid. The plates were read on a Thermo Multiscan FC at 450 nM (see FIG. 6G).

Binder | Kd [4] [nM] | koff [4] [s⁻¹] | kon [4] [M⁻¹ s⁻¹] | IC50 (read off the curve) [5] [µg/mL] | further results
B1 | – | – | – | – | binding result [1]: binds; Mean OD450 [2]: 1.45 OD450; OD450 nM of sample-1 [2]: 1.56 OD450; OD450 nM of sample-2 [2]: 1.34 OD450; % of binding of Ab to E58A mutant vs. that to WT PD-L1 [3]: 117%; Mean OD450 [3]: 1.7 OD450; OD450 nM of sample-1 [3]: 1.52 OD450; OD450 nM of sample-2 [3]: 1.88 OD450
B2 | 11.3 | 0.00515 | 450000 | – | –
B3 | 11.3 | 0.00148 | 132000 | ~0.03 | –
B4 | – | – | – | ~0.04 | –
B5 | – | – | – | ~0.04 | EC50 (read off the curve) [6]: ~0.002 µg/mL
B6 | 74.1 | 0.0542 | 732000 | ~0.07 | EC50 (read off the curve) [7]: ~0.002 µg/mL
B7 | – | – | – | – | binding result [1]: no binding (tested: 20 ug/ml); binding result (hPD-L2-Fc): no binding (tested: 2 ug/ml)
B8 | 103 | 0.0448 | 435000 | ~0.04 | EC50 (read off the curve) [6]: ~0.002 µg/mL
B9 | – | – | – | ~0.05 | EC50 (read off the curve) [7]: ~0.002 µg/mL
B10 | – | – | – | ~0.1 | EC50 (read off the curve) [7]: ~0.002 µg/mL
B11 | – | – | – | ~0.05 | EC50 (read off the curve) [6]: ~0.004 µg/mL
